This is an account of results in publication PMC6804253, “Predicting and Experimentally Validating Hot-Spot Residues at Protein–Protein Interfaces” (ACS Chemical Biology, 2019).

In experiment [1] the test system is PPIs of the SKEMPI data set (by PDBID). Conditions: single mutation to alanine, sheet sortedByGroup, r_group FAMILYVW; ref SKEMPI; cited from earlier work.
For experiment [2] the test system is unchanged. In words: SKEMPI experimental ΔΔG, single mutations to alanine. The class given is binding. The following applies: class of the SKEMPI experimental ΔΔG.

B1: 1A4Y WA263A (protein, UniProt P13489 2-461, looked up, variant W263A)
Ribonuclease inhibitor: SLDIQSLDIQCEELSDARWAELLPLLQQCQVVRLDDCGLTEARCKDISSALRVNPALAELNLRSNELGDVGVHCVLQGLQTPSCKIQKLSLQNCCLTGAGCGVLSSTLRTLPTLQELHLSDNLLGDAGLQLLCEGLLDPQCRLEKLQLEYCSLSAASCEPLASVLRAKPDFKELTVSNNDINEAGVRVLCQGLKDSPCQLEALKLESCGVTSDNCRDLCGIVASKASLRELALGSNKLGDVGMAELCPGLLHPSSRLRTLWIAECGITAKGCGDLCRVLRAKESLKELSLAGNELGDEGARLLCETLLEPGCQLESLWVKSCSFTAACCSHFSSVLAQNRFLLELQISNNRLEDAGVRELCQGLGQPGSVLRVLWLADCDVSDSSCSSLAATLLANHSLRELDLSNNCLGDAGILQLVESVRQPGCLLEQLVLYDIYWSEEMEDRLQALEKDKPSLRVIS
Regarding B1, in experiment [1], the “sk_ddG_kJ (SKEMPI experimental ΔΔG)” value is 4.85 kJ. For the same molecule, in experiment [2], the sk_class entry was “Positive (positive (a hot residue) ΔΔG ≥ 4.184 kJ/mol)”.

B2: 1A4Y WA318A (protein, UniProt P13489 2-461, looked up, variant W318A)
Ribonuclease inhibitor: SLDIQSLDIQCEELSDARWAELLPLLQQCQVVRLDDCGLTEARCKDISSALRVNPALAELNLRSNELGDVGVHCVLQGLQTPSCKIQKLSLQNCCLTGAGCGVLSSTLRTLPTLQELHLSDNLLGDAGLQLLCEGLLDPQCRLEKLQLEYCSLSAASCEPLASVLRAKPDFKELTVSNNDINEAGVRVLCQGLKDSPCQLEALKLESCGVTSDNCRDLCGIVASKASLRELALGSNKLGDVGMAELCPGLLHPSSRLRTLWIWECGITAKGCGDLCRVLRAKESLKELSLAGNELGDEGARLLCETLLEPGCQLESLAVKSCSFTAACCSHFSSVLAQNRFLLELQISNNRLEDAGVRELCQGLGQPGSVLRVLWLADCDVSDSSCSSLAATLLANHSLRELDLSNNCLGDAGILQLVESVRQPGCLLEQLVLYDIYWSEEMEDRLQALEKDKPSLRVIS
On to B2, for which the “sk_ddG_kJ (SKEMPI experimental ΔΔG)” value in experiment [1] is 6.19 kJ. For the same molecule, the sk_class result in experiment [2] is “Positive (positive (a hot residue) ΔΔG ≥ 4.184 kJ/mol)”.

B3: 1A4Y WA375A (protein, UniProt P13489 2-461, looked up, variant W375A)
Ribonuclease inhibitor: SLDIQSLDIQCEELSDARWAELLPLLQQCQVVRLDDCGLTEARCKDISSALRVNPALAELNLRSNELGDVGVHCVLQGLQTPSCKIQKLSLQNCCLTGAGCGVLSSTLRTLPTLQELHLSDNLLGDAGLQLLCEGLLDPQCRLEKLQLEYCSLSAASCEPLASVLRAKPDFKELTVSNNDINEAGVRVLCQGLKDSPCQLEALKLESCGVTSDNCRDLCGIVASKASLRELALGSNKLGDVGMAELCPGLLHPSSRLRTLWIWECGITAKGCGDLCRVLRAKESLKELSLAGNELGDEGARLLCETLLEPGCQLESLWVKSCSFTAACCSHFSSVLAQNRFLLELQISNNRLEDAGVRELCQGLGQPGSVLRVLALADCDVSDSSCSSLAATLLANHSLRELDLSNNCLGDAGILQLVESVRQPGCLLEQLVLYDIYWSEEMEDRLQALEKDKPSLRVIS
Turning to B3, the “sk_ddG_kJ (SKEMPI experimental ΔΔG)” value in experiment [1] is listed as 4.31 kJ. Besides, the sk_class entry in experiment [2] is given as “Positive (positive (a hot residue) ΔΔG ≥ 4.184 kJ/mol)”.

B4: 1A4Y YA434A (protein, UniProt P13489 2-461, looked up, variant Y434A)
Ribonuclease inhibitor: SLDIQSLDIQCEELSDARWAELLPLLQQCQVVRLDDCGLTEARCKDISSALRVNPALAELNLRSNELGDVGVHCVLQGLQTPSCKIQKLSLQNCCLTGAGCGVLSSTLRTLPTLQELHLSDNLLGDAGLQLLCEGLLDPQCRLEKLQLEYCSLSAASCEPLASVLRAKPDFKELTVSNNDINEAGVRVLCQGLKDSPCQLEALKLESCGVTSDNCRDLCGIVASKASLRELALGSNKLGDVGMAELCPGLLHPSSRLRTLWIWECGITAKGCGDLCRVLRAKESLKELSLAGNELGDEGARLLCETLLEPGCQLESLWVKSCSFTAACCSHFSSVLAQNRFLLELQISNNRLEDAGVRELCQGLGQPGSVLRVLWLADCDVSDSSCSSLAATLLANHSLRELDLSNNCLGDAGILQLVESVRQPGCLLEQLVLADIYWSEEMEDRLQALEKDKPSLRVIS
As to B4, in experiment [1], the “sk_ddG_kJ (SKEMPI experimental ΔΔG)” value is 13.64 kJ. Also, the sk_class entry in experiment [2] was “Positive (positive (a hot residue) ΔΔG ≥ 4.184 kJ/mol)”.
